# Measurements published in patent US20060142171A1, “Novel alkaline protease” (priority 2003, published 2006).
# Several values for one entry are separate records, joined by “and”; a condition that tells them apart may be missing. Equal entries are not always repeated.
# Assays:
# casein = assay: Residual protease activity after incubation (pH, temperature, detergent components); format: biochemical; settings: for Enzyme activity after incubation: 90 min at 40° C.; for Residual activity (% of original activity): 1 h at 50° C.
# Experimental: The effect of pH on enzyme stability was studied by incubating the enzyme in different buffers of varying pH values at 50° C. for 1 h and then measuring the residual activity using standard assay procedure. AL protease was very stable in a broad pH range, maintaining over 90% of its original activity between pH 6 and 11, and more than 70% activity at pH 12 (FIG. 8A).
# The effect of temperature on activity of the two proteases was determined by assaying enzyme activity at different temperatures in glycine-NaOH buffer, pH 10, while the thermal stability was determined by incubating the enzymes at different temperatures followed by measuring the residual activity under standard conditions. These measurements were done both in the presence and absence of 5 mM Ca^2+. […] Its optimum temperature for activity was at 70° C. (FIG. 9A), but when incubated at that temperature the enzyme was inactivated within 1 h (FIG. 10A). […] At temperature values above 50° C. Ca^2+ was absolutely required for the thermal stability of AL-89 protease (FIG. 10B).
# Assay of protease activity was performed according to Ferrero et al. with some modifications. One millilitre of the reaction mixture containing 1% casein in 50 mM glycine-NaOH buffer, pH 10.0 and an appropriate amount of enzyme was incubated at 50° C. for 20 min after which the reaction was terminated by addition of 0.5 ml of trichloroacetic acid and centrifuged. 2.5 ml sodium carbonate was added to 0.5 ml supernatant followed by 0.5 ml of 1 M Folin-Ciocalteau reagent. The reaction mixture was allowed to stand for 30 min at room temperature before measuring the absorbance at 660 nm. One unit of protease activity was defined as the amount of enzyme, which released 1 μg tyrosine per min under standard assay conditions.
# Effect of oxidation by H2O2 on AL protease stability was determined by residual activity measurements because of the temperature-induced decomposition of the peroxide in the calorimeter. […] Residual activity of the AL protease was also studied after incubation with sodium tripolyphosphate (STP; Sigma), sodium-Zeolite 4A (Prayon Tessenderlo, Belgium) and sodium citrate, respectively, representing some of the sequestering agents used in washing detergents. The enzyme activity was unchanged in the presence of 0.01-0.05% (w/v) Zeolite and STP, respectively, after 90 min at 40° C., and more than 80% of the original activity was retained in the presence of 0.5 M citrate (data not shown).
# [1] = Calcium content by ICP-SMS; format: physicochemical; settings: after treatment with chelex
# Experimental: One millilitre of the purified AL protease (3 mg protein) solution was dialyzed for 24 h at 4° C. against 1 L of 10 mM glycine-NaOH buffer, pH 10.0, pretreated for 48 h with Chelex 100 (BioRad, Hercules, Calif., USA; […]) placed in a dialysis bag. Thereafter the dialysis was repeated three times against the buffer containing Chelex 100 (1.5 g/l) for a total period of 36 h at 4° C. The buffer was prepared from deionised water and plastic containers were used throughout. The residual calcium content In the enzyme sample was determined using Inductively Coupled Plasma-Mass Spectrometry (ICP-SMS).
# haemoglobin = assay: Protease activity with haemoglobin as substrate; format: biochemical; settings: 50 mM glycine-NaOH, pH 10 at 50° C.
# [2] = Differential scanning calorimetry; format: physicochemical
# Experimental: The influence of different parameters including pH, calcium ions, EDTA, and detergent on thermal stability of the AL protease was investigated by differential scanning calorimetry (DSC). Comparative studies were also performed with Subtilisin Carlsberg. Thermal scans of AL protease (0.3 mg protein/ml) and subtilisin (2.5 mg protein/ml in the presence of 1 mM phenyl-methanesulfonyl fluoride (PMSF); Sigma) were performed by increasing temperature from 25° C. to 95° C. at a scan rate of 1° C. per min on a VP-DSC (MicroCal, Northampton, Mass.). The thermograms were corrected by subtracting the base line, obtained from a blank scan of the no-enzyme solution, and normalized for protein concentration. The unfolding transition of the AL protease was fitted to a two-state model. The Tm (temperature at which heat capacity change is a maximum), the calorimetric (or true) enthalpy ΔHcal (peak area), and van't Hoff (or apparent) enthalpy AHVH (calculated from the shape of thermogram) were calculated using the Origin software provided by MicroCal.
# keratin azure = assay: Keratinolytic activity; format: biochemical; settings: 10 mM glycine-NaOH, pH 10 at 50° C.
# Experimental: The hydrolysis of keratin azure (Sigma) by the AL protease was determined according to the modified method of Santos et al. (1996). The reaction mixture (1.5 ml) comprising 0.5 ml of the enzyme solution and 10 mg keratin-azure in 10 mM glycine-NaOH buffer, pH 10 was incubated at 50° C. with constant shaking over 24 h period. The substrate was removed by centrifugation and liberation of the azo dye was measured at 595 nm. The reaction under similar conditions using heat-treated enzyme (by incubation in a boiling water bath for 15 min) was also run as a control. One unit (U) of keratinolytic activity was defined as an increase in the A595nm of 0.01 after 2 h.
# [3] = pre-treated with chelex, or with 5 mM Ca^2+ or 10.0 mM EDTA, pH 10.0
# [4] = untreated, 10 mM glycine-NaOH buffer, pH 10.0 (subtilisin with 1 mM PMSF)
molecule,measurement,setting,value
"AL protease: thermostable alkaline, non-Ca2+-dependent serine protease isolated from Nesterenkonia sp. nov. strain AL (DSM 15380); SEQ. ID. NO. 1 (protein, listed as Nesterenkonia sp.) QNPADSPHIGKVFFSTNQGDFVCSANIVASANQSTVATAGHCLHDGNGGQFARNFVFAPAYDYGESEHGVWAAEELVTSAEWANRGDFEHDYAFAVLETKGGTTVQQQVGTASPIAFNQPRGQYYSAYGYPAAAPFNGQELHSCHGTATNDPMGSSTQGIPCNMTGGSSGGPWFLGQGTGGAQNSVNSYGYTFLPDVMFGPYFGSGAQQNYNYAST",Enzyme activity after incubation,"casein; 0.01-0.05% (w/v) STP, data not shown",unchanged
same,Enzyme activity after incubation,"casein; 0.01-0.05% (w/v) Zeolite, data not shown",unchanged
same,Original activity retained,"casein; 0.5 M citrate, data not shown",more than 80%
same,"Activity, % of the original",casein; 1 M peroxide (H2O2) at 40° C. for 90 min,60%
same,Effect on activity relative to 1 M peroxide,"casein; 1.6 M peroxide (H2O2), 40° C.",did not reduce the activity further
same,Residual activity (% of original activity),casein; between pH 6 and 11,over 90%
same,Residual activity (% of original activity),casein; pH 12,more than 70%
same,Thermal stability,"casein; 1 h incubation at 65° C., presence or absence of Ca^2+",very good stability
same,Initial activity retained,"casein; 90 min incubation with 1% SDS at 40° C., pH 10.0",About 75%
same,Time to inactivation,casein; incubated at 70° C.,≤ 1 h
same,Ca^2+ content,[1],0.109 mol/mol
same,Time to complete hydrolysis of haemoglobin,haemoglobin,≤ 20 min
same,Decrease in Tm,"[2]; 1% SDS vs untreated, pH 10.0",1.4 °C
same,Decrease in ΔHcal,"[2]; 1% SDS vs untreated, pH 10.0",4 kcal/mol
same,Tm,"[2]; +0.1% SDS, pH 10.0",74.5 ± 0.03 °C
same,ΔHcal,"[2]; +0.1% SDS, pH 10.0",158 ± 0.7 kcal/mol
same,Tm,"[2]; +0.5% SDS, pH 10.0",74.1 ± 0.02 °C
same,ΔHcal,"[2]; +0.5% SDS, pH 10.0",158 ± 0.7 kcal/mol
same,Tm,"[2]; +1% SDS, pH 10.0",73.1 ± 0.02 °C
same,ΔHcal,"[2]; +1% SDS, pH 10.0",154 ± 0.6 kcal/mol
same,Mean ratio of ΔHcal to ΔHvH,[2]; at any given pH,close to unity (±0.05)
same,Tm,[2]; pH 6,69.7 °C and 69.7 ± 0.02 °C
same,ΔHcal,[2]; pH 6,141 kcal/mol and 141.0 ± 0.5 kcal/mol
same,ΔHcal/ΔHvH,[2]; pH 6,0.94
same,ΔHvH,[2]; pH 6,150.0 ± 1.2 kcal/mol
same,Tm,[2]; pH 7,73.5 ± 0.02 °C
same,ΔHcal,[2]; pH 7,149.0 ± 0.5 kcal/mol
same,ΔHcal/ΔHvH,[2]; pH 7,1.02
same,ΔHvH,[2]; pH 7,147.0 ± 1.2 kcal/mol
same,Melting temperature,[2]; pH 7-10,about 74 °C
same,Tm,[2]; pH 8,74.3 ± 0.02 °C
same,ΔHcal,[2]; pH 8,158.0 ± 0.5 kcal/mol
same,ΔHcal/ΔHvH,[2]; pH 8,0.93
same,ΔHvH,[2]; pH 8,171.0 ± 1.2 kcal/mol
same,Tm,[2]; pH 9,74.5 ± 0.02 °C
same,ΔHcal,[2]; pH 9,157.5 ± 0.5 kcal/mol
same,ΔHcal/ΔHvH,[2]; pH 9,1.02
same,ΔHvH,[2]; pH 9,155.0 ± 1.3 kcal/mol
same,Tm,[2]; pH 10,74.5 ± 0.03 °C
same,ΔHcal,[2]; pH 10,158 kcal/mol and 158.0 ± 0.5 kcal/mol
same,ΔHcal/ΔHvH,[2]; pH 10,0.95
same,ΔHvH,[2]; pH 10,167.0 ± 1.7 kcal/mol
same,Tm,[2]; pH 11,72.0 °C and 72.6 ± 0.02 °C
same,ΔHcal,[2]; pH 11,142 kcal/mol and 141.5 ± 0.5 kcal/mol
same,ΔHcal/ΔHvH,[2]; pH 11,1.01
same,ΔHvH,[2]; pH 11,141.0 ± 1.3 kcal/mol
same,"Melting temperature, Tm",[2]; pH range of 8.0-10.0,around 74 °C
same,Melting profile and denaturation temperature,[2]; [3],unaltered
same,ΔHcal,[2]; [3],around 158±0.5 kcal/mol
same,Tm,[2]; [4],74.5 ± 0.03 °C
same,ΔHcal,[2]; [4],158 ± 0.6 kcal/mol
same,Time of main hydrolysis of keratin-azure,keratin azure,2 to 12 h
